Reference: PMC2719696, “Kinetics and Cellular Site of Glycolipid Loading Control the Outcome of Natural Killer T Cell Activation” (Immunity, 2009)

T1: mCD1d (Mus musculus, UniProt P11609)
T1 sequence (P11609 22-305 limits assumed): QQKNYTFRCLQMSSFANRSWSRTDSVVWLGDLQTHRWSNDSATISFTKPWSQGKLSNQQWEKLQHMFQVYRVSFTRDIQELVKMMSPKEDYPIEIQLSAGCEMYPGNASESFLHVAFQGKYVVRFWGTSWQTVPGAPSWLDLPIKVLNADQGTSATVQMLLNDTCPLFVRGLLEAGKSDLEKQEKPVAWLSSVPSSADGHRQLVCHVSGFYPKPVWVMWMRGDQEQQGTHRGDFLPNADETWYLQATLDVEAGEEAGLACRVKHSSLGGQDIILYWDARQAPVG
T1 sequence (P01887 21-119 partner): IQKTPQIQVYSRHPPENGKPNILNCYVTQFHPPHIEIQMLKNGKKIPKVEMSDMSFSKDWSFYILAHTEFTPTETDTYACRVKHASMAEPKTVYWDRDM


Tests used:
BALB/c splenocytes = assay: Mouse splenocyte stimulation with glycolipids, IL-4, IL-13 and IFN-γ in supernatants; assay type: cell-based; conditions: 48 hr
From the text: (§1) Figure 1 Synthetic Analogs of αGalCer (A) Structures and nomenclature of iNKT cell-activating αGalCer analogs used in this study. The nomenclature used in most cases is based on the identity of the amide-linked acyl group in the ceramide moiety. Acyl carbon chain length and number of unsaturations are indicated by the names of most analogs, with exceptions being OCH (which has a C24 saturated acyl chain) and the compounds with amide-linked prostaglandin B1 (PGB1) or 4-fluorophenyl acetate (4FPA) groups. The phytosphingosine base is 18 carbons in length for all analogs except OCH, which has a nine-carbon base. (B) Hybridoma DN3A4.1-2 (Vβ8.2^+) was stimulated with each of the αGalCer analogs at a range of concentrations with JAWS II cells as APCs, and the amounts of IL-2 production were analyzed. Potencies of glycolipids are shown as 1/EC50 (as defined in Figure S1). […] Concentrations of IFN-γ, IL-4, and IL-12p70 were determined in serum by capture ELISA. “ND” stands for not detected. […]
(§2) For in vitro stimulation, murine iNKT hybridomas at 5 × 10^4 cells/well in 96-well plates were stimulated with an equal number of either JAWS II cells or transfected A20 cells in complete medium with glycolipids for 12 hr at 37°C, and levels of murine IL-2 secretion were determined. […] Subsequently the levels of IL-4, IL-13, and IFN-γ in culture supernatants were quantified by capture ELISA. […]

iNKT cells = assay: In vivo activation of iNKT cells by i.p. glycolipid injection; serum cytokines by capture ELISA; conditions: C57BL/6 mice, i.p. 4 nmoles
From the text: as §1, §2

mCD1d = target: T1, mCD1d; assay: In vitro CD1d loading assay with immobilized mCD1d, saposins or Triton X-100, DN32.D3 hybridoma IL-2 readout; assay type: biochemical; conditions: saposin 10 μg/ml, glycolipid αGalCer-C26:0
Experimental: Figure 5 Lack of Detergent-like Cofactor Dependence of Th2 Cell-Type Cytokine-Biasing αGalCer Analogs (A) Glycolipids were incubated for 24 hr at 37°C with murine CD1d proteins in the absence (top row) or presence (bottom row) of 0.05% Triton X-100. The resulting complexes were assembled as tetramers and used for staining mouse iNKT hybridoma DN3A4.1-2. The dashed line histograms show background staining with unloaded tetramers, and the bold histograms show staining with glycolipid loaded tetramers. (B) The same analysis as in (A) except with human CD1d tetramers, which were also used for DN3A4.1-2 staining. (C) Glycolipids at various concentrations were incubated with immobilized mCD1d protein for 2 hr in pH 7.0 or pH 5.0 buffers with no additives (medium) or in the same buffers containing the indicated purified recombinant saposins (10 μg/ml) or Triton X-100 (0.05%). After washing, DN32.D3 iNKT hybridoma cells were added and supernatant concentrations of IL-2 were determined after an additional 14 hr of incubation. All results shown (A, B, and C) were representative of at least two independent experiments.
To extend these observations to a more physiological model, we tested the effects of purified recombinant saposin A, B, C, and D proteins on loading of αGalCer analogs.
Recombinant murine CD1d proteins at 4 μg/ml in 50 μl PBS were coated on the surfaces of microtiter plate wells for 2 hr at 37°C and then washed with PBS for removal of unbound proteins. Subsequently, various concentrations of glycolipids in 0.1 M sodium phosphate buffer (pH 7.0) or 0.1 M sodium citrate buffer (pH 5.0) containing 150 mM NaCl were incubated with or without 0.05% Triton X-100 or recombinant purified human saposins A, B, C, or D at 10 μg/ml for another 2 hr at 37°C. Saposins were produced and purified as described ([Yuan et al., 2007]). After extensive washing with PBS and media, 5 × 10^4 murine iNKT hybridoma DN32.D3 cells were added in 200 μl of complete medium and incubated at 37°C for 14 hr. Supernatants were analyzed for murine IL-2 by capture ELISA.

| activity of purified saposin in enabling loading of αGalCer-C26:0 onto mCD1d (mCD1d) | Molecule | Th2 cell-type cytokine bias (ratios of IL-13 or IL-4 to IFN-γ) (BALB/c splenocytes) | activity in vivo (serum cytokines) (iNKT cells) |
| --- | --- | --- | --- |
| – | CCCCCCCCCCCCCCC(O)C(O)C(COC1OC(CO)C(O)C(O)C1O)NC(=O)Cc1ccc(F)cc1 (stereo not drawn) [αGalCer-4FPA] | pronounced Th2 cell-type biasing effect in vitro | minimal activity in vivo |
| minimal or no activity | saposin D: recombinant purified human saposin D (protein, UniProt P07602 405-486, looked up, Saposin-D) Saposin-D: DGGFCEVCKKLVGYLDRNLEKNSTKQEILAALEKGCSFLPDPYQKQCDQFVAEYEPVLIEILVEVMDPSFVCLKIGACPSAH | – | – |
| strongly active | Saposin B: recombinant purified human saposin B, lipid transfer protein (protein, UniProt P07602 195-273, looked up, Saposin-B, recombinant purified human saposin B, lipid transfer protein) Saposin-B: GDVCQDCIQMVTDIQTAVRTNSTFVQALVEHVKEECDRLGPGMADICKNYISQYSEIAIQMMMHMQPKEICALVGFCDE | – | – |
| minimal or no activity | saposin C: recombinant purified human saposin C (protein, UniProt P07602 311-390, looked up, Saposin-C) Saposin-C: SDVYCEVCEFLVKEVTKLIDNNKTEKEILDAFDKMCSKLPKSLSEECQEVVDTYGSSILSILLEEVSPELVCSMLHLCSG | – | – |
| minimal or no activity | saposin A: recombinant purified human saposin A (protein, UniProt P07602 60-142, looked up, Saposin-A) Saposin-A: SLPCDICKDVVTAAGDMLKDNATEEEILVYLEKTCDWLPKPNMSASCKEIVDSYLPVILDIIKGEMSRPGEVCSALNLCESLQ | – | – |
